Measured values published in patent US20090062198A1.
Ends that are not written are not given here.

Target: mammalian voltage-gated Kv1.2 channel (mammalian)

Binder: VSCTGSKDCYAPCRQQTGCPNAKCINKSCKCYGC (not fully specified; ends and bridges not checked) [[Q15]-MTX]
- potency on the channel: 0.047 nM
